Source: PMC6358683 (Proceedings of the National Academy of Sciences of the …, 2019)

Legend:
Experiment in all cases: ELISA
[1] = molecular target: HA of A/Japan/305+/1957 (Influenza A virus A/Japan/305/1957 …, UniProt P03451)
[2] = molecular target: HA of A/Solomon Islands/03/2006 (Influenza A virus A/Solomon …, UniProt A7Y8I1, strain)
[3] = molecular target: HA of A/Thailand/CU44/2006 (Influenza A virus A/Thailand/CU44/2006 …, UniProt A7LI25, strain)
[4] = molecular target: HA of A/Hong Kong/1/1968 (influenza A virus A/Hong Kong/1/1968 …, UniProt Q91MA7)

Measured: binding result

B1: C05 WT (antibody, V domains shown)
VH: QVQLQESGGGLVQPGESLRLSCVGSGSSFGESTLSYYAVSWVRQAPGKGLEWLSIINAGGGDIDYADSVEGRFTISRDNSKETLYLQMTNLRVEDTGVYYCAKHMSMQQVVSAGWERADLVGDAFDVWGQGTMVTVSS
VL: DIQLTQSPSSLSASVGDRVTLTCQASQDIRKFLNWYQQKPGKGPKLLIYDASNLQRGVPSRFSGGGSGTDFTLIISSLQPEDVGTYYCQQYDGLPFTFGGGTKVVIK
binds: all assays above
